Reference: patent US20230295259A1 (Protagonist Therapeutics, Inc., priority 2020, published 2023)
Starred links: 1 amine or outer side, 2 acyl side, 3 side chain; linkers in the order of their positions; H or OH if unused. Positions of bridges follow the written chain, without caps; N, C: chain ends. Non-standard residues stand in square brackets, D forms with d. Groups on a side chain read outwards from the residue. *: point of attachment. Glu(OMe) = COC(=O)CC[C@H](N[*:1])C(=O)[*:2]; C18 diacid = O=C(O)CCCCCCCCCCCCCCCCC(=O)*; Dip = N[C@H](C(=O)O)C(c1ccccc1)c1ccccc1; Palmitoyl = CCCCCCCCCCCCCCCC(=O)*; β3hF = N[C@H](CC(=O)O)Cc1ccccc1; Cha = N[C@@H](CC1CCCCC1)C(=O)O; Tle = CC(C)(C)[C@H](N)C(=O)O; hLeu = CC(C)CC[C@H](N)C(=O)O; 4Amb = NCc1ccc(C(=O)O)cc1; Isovaleryl = CC(C)CC(=O)*; Dap = NC[C@H](N)C(=O)O; AEEA = NCCOCCOCC(=O)O; Ahx = NCCCCCC(=O)O

T1: human ferroportin (SLC40A1) fused in frame with GFP, stably expressed in HEK293 cells (human, UniProt Q9NP59 1-571)
T1 sequence (looked up): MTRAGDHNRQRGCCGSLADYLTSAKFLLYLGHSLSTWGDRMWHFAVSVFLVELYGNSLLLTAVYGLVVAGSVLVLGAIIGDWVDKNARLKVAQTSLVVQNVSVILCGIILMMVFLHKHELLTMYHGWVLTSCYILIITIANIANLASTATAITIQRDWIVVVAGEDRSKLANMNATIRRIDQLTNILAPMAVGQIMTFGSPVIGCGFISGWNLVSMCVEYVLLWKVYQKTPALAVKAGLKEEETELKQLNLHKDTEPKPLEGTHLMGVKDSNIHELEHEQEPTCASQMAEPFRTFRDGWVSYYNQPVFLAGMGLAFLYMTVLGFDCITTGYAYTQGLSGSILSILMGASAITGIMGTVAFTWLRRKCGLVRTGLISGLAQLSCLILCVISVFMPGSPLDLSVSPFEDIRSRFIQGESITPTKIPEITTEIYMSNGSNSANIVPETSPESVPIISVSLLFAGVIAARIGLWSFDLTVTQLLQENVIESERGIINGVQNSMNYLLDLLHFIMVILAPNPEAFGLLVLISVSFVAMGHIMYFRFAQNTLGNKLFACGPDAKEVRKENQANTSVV


target: T1, human ferroportin (SLC40A1) fused in …; assay: cell-based or functional assay

| Binder | IC50: FPN internalisation [nM] |
| --- | --- |
| Isovaleryl-[Glu(OMe)]TH[Dip]PC[Tle]K([AEEA-AEEA-Dap-C18 diacid])[β3hF][dK]C-NH2 (disulfide 6-11 (inferred)) [Seq. No. 514] | 13.6 |
| Isovaleryl-ETHFPCIK(Ac)F[dK]C-NH2 (disulfide 6-11 (inferred)) [Seq. No. 478] | 69.9 |
| XXTHXPCIXXXC ([Isovaleric Acid]-[Glu(OMe)]-T-H-[Dpa]-P-C-I-[Lys(1PEG2_1PEG2_Dap_C18_Diacid)]-[Phe(4-COOH)]-[(D)Lys]-C-NH2) [Seq. No. 503] | 180 |
| XXTHXPXIXXXC ([Isovaleric Acid]-[Glu(OMe)]-T-H-[Dpa]-P-[(D)Cys]-I-[Lys(PEG2_1PEG2_DMG_N_2ae_C18_Diacid)]-[bhPhe]-[(D)Lys]-C-NH2) [Seq. No. 495] | 14.9 |
| Isovaleryl-[Dap]TH[Dip]PCI[dK][β3hF]K([Ahx-Palmitoyl])[dR]C-NH2 (disulfide 6-12 (inferred)) [Seq. No. 502] | 55.7 |
| XETXXPCIXXXC ([Isovaleric Acid]-E-T-[3Quin]-[Dpa]-P-C-I-[Lys(1PEG2_1PEG2_Dap_C18_Diacid)]-[bhPhe]-[(D)Lys]-C-NH2) [Seq. No. 479] | 475 |
| Isovaleryl-[Glu(OMe)]TH[Dip]PCIK([AEEA-AEEA-Dap-C18 diacid])[hLeu][dK]C-NH2 (disulfide 6-11 (inferred)) [Seq. No. 509] | 20.6 |
| Isovaleryl-[Glu(OMe)]TH[Dip]PCI[dK][β3hF]K([Ahx-Palmitoyl])[dR]C[dR]-NH2 (disulfide 6-12 (inferred)) [Seq. No. 500] | 52.5 |
| XXTYXPCIXXXC ([Isovaleric Acid]-[Glu(OMe)]-T-Y-[Dpa]-P-C-I-[Lys(1PEG2_1PEG2_Ahx_C18_Diacid)]-[bhPhe]-[(D)Lys]-C-NH2) [Seq. No. 497] | 35.3 |
| Isovaleryl-[Glu(OMe)]TH[Dip]PC[Cha]K([AEEA-AEEA-Dap-C18 diacid])[β3hF][dK]C-NH2 (disulfide 6-11 (inferred)) [Seq. No. 511] | 16.9 |
| XETYXPCIXXXC ([Isovaleric Acid]-E-T-Y-[Dpa]-P-C-I-[Lys(1PEG2_1PEG2_Dap_C18_Diacid)]-[bhPhe]-[(D)Lys]-C-NH2) [Seq. No. 477] | 246 |

Second part, the binder after the results:

| IC50: FPN internalisation [nM] | Binder |
| --- | --- |
| 28.1 | XXTHXPCIXXXXC ([Isovaleric Acid]-[Glu(OMe)]-T-H-[Dpa]-P-C-I-[(D)Lys]-[bhPhe]-[Lys(DMG_N_2ae_Palm)]-[(D)Lys]-C-NH2) [Seq. No. 526] |
| 24.8 | XEXHXPCIXXXC (not fully specified; [Isovaleric Acid]-E-[Dap]-H-[Dpa]-P-C-I-[Lys(1PEG2_1PEG2_Ahx_C18_Diacid)]-[bhPhe]-[(D)Lys]-C-NH2) [Seq. No. 547] |
| 90 | XEXHXPCIXXXXC (not fully specified; [Isovaleric Acid]-E-[Lys(Acrylamide)]-H-[Dpa]-P-C-I-[(D)Lys]-[bhPhe]-[Lys(Ahx_Palm)]-[(D)Lys]-C-NH2) [Seq. No. 551] |
| 21 | Isovaleryl-[Glu(OMe)]TH[Dip]PCIK([AEEA-AEEA-Dap-C18 diacid])[β3hF][dR]C-NH2 (disulfide 6-11 (inferred)) [Seq. No. 535] |
| 31 | XETHXPCIXXXXC ([Isovaleric Acid]-E-T-H-[Dpa]-P-C-I-[(D)Lys]-[bhPhe]-[Lys(Ahx_DMG_N_2ae_Palm)]-[(D)Lys]-C-NH2) [Seq. No. 527] |
| 203 | XXTHXPCIXXXC ([Isovaleric Acid]-[IsoGlu]-T-H-[Dpa]-P-C-I-[Lys(1PEG2_1PEG2_Ahx_C18_Diacid)]-[bhPhe]-[(D)Lys(PEG11_OMe)]-C-NH2) [Seq. No. 533] |
| 7.14 | XXTHXPCIXXXC ([Isovaleric Acid]-[Glu(OMe)]-T-H-[Dpa]-P-C-I-[Lys(Ahx_DMG_N_2ae_Palm)]-[bhPhe]-[(D)Lys]-C-NH2) [Seq. No. 532] |
| 7.98 | XETHXPCIXXXXC ([Isovaleric Acid]-E-T-H-[Dpa]-P-C-I-[(D)Lys]-[bhPhe]-[Lys(DMG_N_2ae_Palm)]-[(D)Lys]-C-NH2) [Seq. No. 525] |
| 94.1 | Isovaleryl-[Glu(OMe)]TH[Dip]PC[dR]K([AEEA-AEEA-Dap-C18 diacid])[β3hF][dK]C-NH2 (disulfide 6-11 (inferred)) [Seq. No. 536] |
| 24.7 | XXTHXPCIXXXC ([Isovaleric Acid]-[Glu(OMe)]-T-H-[Dpa]-P-C-I-[Lys(PEG12_PEG12_Dap_C18_Diacid)]-[bhPhe]-[(D)Lys]-C-NH2) [Seq. No. 519] |
| 9.58 | XETHXPCIXXXC ([Isovaleric Acid]-E-T-H-[Dpa]-P-C-I-[Lys(PEG12_Dap_C18_Diacid)]-[bhPhe]-[(D)Lys]-C-NH2) [Seq. No. 517] |
| 10.1 | XXTHXPCIXXXC ([Isovaleric Acid]-[Glu(OMe)]-T-H-[Dpa]-P-C-I-[Lys(1PEG2_1PEG2_Dap_C18_Diacid)]-[bhPhe]-[(D)Lys(Ac)]-C-NH2) [Seq. No. 521] |
| 37.4 | XXTHXPCIXXXC ([Isovaleric Acid]-[Glu(OMe)]-T-H-[Dpa]-P-C-I-[Lys(PEG12_DMG_N_2ae_Palm)]-[bhPhe]-[(D)Lys]-C-NH2) [Seq. No. 530] |
| 53.6 | XEXHXPCIXXXC ([Isovaleric Acid]-E-[Dab]-H-[Dpa]-P-C-I-[Lys(1PEG2_1PEG2_Ahx_C18_Diacid)]-[bhPhe]-[(D)Lys]-C-NH2) [Seq. No. 546] |
| 13.1 | Isovaleryl-ETH[Dip]PC[4Amb]K([AEEA-AEEA-Ahx-C18 diacid])[β3hF][dK]C-NH2 (not fully specified (bridges); cysteine pairing not given here) [Seq. No. 550] |
